Test results published in PMC10729150 (Journal for Immunotherapy of Cancer, 2023).

Columns and labels:
[1] = target: T1, Recombinant human CTLA-4-Fc (human, UniProt P16410); experiment: SPR
[2] = target: T1, Recombinant human CTLA-4-Fc; experiment: ELISA

T1 sequence (P16410 36-161): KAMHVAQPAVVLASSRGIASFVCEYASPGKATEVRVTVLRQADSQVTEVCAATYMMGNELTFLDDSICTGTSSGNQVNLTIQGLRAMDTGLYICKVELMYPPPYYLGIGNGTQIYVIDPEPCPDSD

Row | Kd [1] [pM] | Kd [2] [pM] | Binder
1 | 91 | 160 | XTX100 (antibody, V domains shown) VH: QVQLVQSGAEVKKPGSSVKVSCKASGYTFTNYFMNWVRQAPGQGLEWMGRVDPEQGRADYAEKFKKRVTITADKSTSTAYMELSSLRSEDTAVYYCARRAMDNYGFAYWGQGTLVTVSS VL: EIVLTQSPDFQSVTPKEKVTITCSANSALSYMYWYQQKPDQSPKLWVHGTSNLASGVPSRFSGSGSGTDFTLTINSLEAEDAATYYCHHWSNTQWTFGGGTKVEIK
2 | 127 | 240 | XTX101+MMP (proteolytically activated XTX101) (antibody, V domains shown) VH: QVQLVQSGAEVKKPGSSVKVSCKASGYTFTNYFMNWVRQAPGQGLEWMGRVDPEQGRADYAEKFKKRVTITADKSTSTAYMELSSLRSEDTAVYYCARRAMDNYGFAYWGQGTLVTVSS VL: EIVLTQSPDFQSVTPKEKVTITCSANSALSYMYWYQQKPDQSPKLWVHGTSNLASGVPSRFSGSGSGTDFTLTINSLEAEDAATYYCHHWSNTQWTFGGGTKVEIK
